The target in assay [1] is FMDV O/18074 146S antigen (Foot-and-mouth disease virus serotype …, strain).
The target of assay [2] is T1, FMDV O/Tibet/99 146S antigen (Foot-and-mouth disease virus serotype …, strain).
T1 construct: copies: + + +
As to the kind of experiment: BLI; RED96; […] (10 μg/ml) […]; 0.01 M PBS, 0.1% BSA, 0.02% Tween 20; global fit. The settings on record: both partners purified.

B1: pOA-15 (antibody, V domains shown)
VH: EEKLVESGGGLVQPGGSLRLSCVGSGFDLSDYGFSWVRQAPGKGLETMAFIDSRTSSFTTYTVIGVKGRFTIDNDNALQLNSLTSEDTARYFCARGRGSNGPKGLIGAYGMDLWGPGVEVVVSS
VL: QIVIQEPAMSVSLGGTVTLTCAYRSGSVTIKDGPNWYQQTPGQPPRQLIYNTNSRPTGVPSRFSGAISGNKATLTIAGAQAEDEAEYFCILYKNLEEVRFGDGTHLSVV
As to B1, the binding result in assay [1] was “binds”.

B2: pOA-5 (antibody, V domains shown)
VH: EEKLVESGGGLVQPGGSLRLSCVGSGFIFSSGEITWVRQAPGKGLEWLAYTTIRGTSKYYADSVGGRFTISRDDSQNTATLQMNSLRIEDTARYYCARGKEDAVQGYYGKALDLWGPGIGVVVSS
VL: SSQLTQPPGVSVSLGGTATITCQGGSFGRYYSHWYKQRPGQAPILVIYDDAKRPAGIPDRFSGSTSGNSVTLTITGAQAEDEADYYCQSVDRSGNAKFGGGTHLTVL
For the molecule B2, the binding result in assay [1] is “binds”.

B3: pOA-12 (antibody, V domains shown)
VH: EEKLVESGGGLVQPGGSLTLSCVGSGFYFSNYEIVWVRQVRGGGLEWISYVSNGGARTSYALSVKGRFTIFRDNSRNTVDLHLNNLRIEDTARYYCVGGGQCLGDNCYSMALWGPGVEVFVSS
VL: QTVIQEPAMSVSLGGTVTLTCAFTSGSVTKTNYPSWFQQTPGQPPRQLIYHTDNQATGVPSRFSGAISGNKATFTITGAQAEDEADYFCCLYRGTTNVPFGGGTRLTVL
Consider B3, for which the binding result in assay [1] is “binds”.

B4: pOA-11 (antibody, V domains shown)
VH: EEKVVESGGGLVRPGESLRLSCVAEGVEFGRRSVRWVRQRPGKGLEFVIYMFNDAQSVDIADSVKGRFTISRDNSQNTAYLQMNRLTVEDTGRYFCLTANKWFGPGVEVVVSS
VL: AIVLTQTPLSLSVTPGESVSISCKSTKSVLDTDGTIVLNWYLQRPGQAPQRVIWSTFYRETGVPDRFTGSGSDTDFTLHISRVEAEDVGVYYCQQSRESTSFGAGTKLDLK
On to B4, for which the binding result in assay [1] is listed as “binds”.

B5: pOA-18 (antibody, V domains shown)
V domain 1: EEKLVESGGGLVQPGGSLRLSCVGSGFTFTNYEIVWVRQAPGRGPEWISYISNGGARKAYATSVRGRFSISRDNSRNTVDLQLNNLKIEDTGRYYCVGGGHCLGDNCYSLSLWGPGVELVVSS
V domain 2: QTVIQEPAMSVSPGGTVTLTCAFYSGSVTSENYPSWFQQTSGQPPREVIYMTDNRPTGVPDRFSGSISGNKATLTITGAQAEDEADYFCMLYKGTTNVPFGGGTHLTVL
As to B5, in assay [1], the binding result is on record as “binds”.

B6: pOA-1 (antibody, V domains shown)
VH: EENVVESGGGLVRPGGSLRLSCIFSGFTFSTYSVRWVRQAPGKGLEFLTYIFKNVGDIDTADSVKGRFTISRDNSQNTAYLQMNSLRPEDTARYFCLVANKYWGPGVEVLVSS
VL: AIVLTQSPLSLSVSPGDSASISCRSSQSLVEDDGSSVLNWYLQRPGQSPQRLIYSAVGRDAGVPDRFSGSGSGTDFTLTISGVEAEDLGVYYCQQSKVSTTFGAGSKLDLK
On to B6, for which, in assay [2], the affinity, expressed as Kd, was 0.04 nM.

B7: pOA-16 (antibody, V domains shown)
VH: EEKLVESGGGLVQPGGSLTLSCVGSGFDFSLYNMIWVRQAPGKGLEWLAGIWESGVQDSYPESMKGRFTISRDNSQNTAYLKIHILGMEDTARYYCASGARCGEDRCIDLWGPGVEVVVSS
VL: QTVIQEPAMKVSPGGTVTLSCAFSSGSVTTSNYPSWFQHTPGQPPRLLMYRTSYRPTGVNSRFSGAISGNKATLTITGAQTTDEADYYCALFLNTITIPFGGGTHLTVL
Take B7: in assay [1], the binding result is given as “binds”.

B8: pOA-14 (antibody, V domains shown)
VH: EERLVESGGGLVQPGGSLKLSCVASGFDFQKYMINWVRQAPGKGLEWLALIWNDGKQRYYVESAHMRFTISRNNSQNTAYLEMNRLRVEETARYYCARGWGVEKMDLWGPGVEVAVSS
VL: QTVIQEPAMTVSLGGTVTLTCGFSSGSVTGTKYPNWYQQTPGQRPRLLIYSTKIRPTGVPSRFSGAISGNKATLTIMGAGAEDEADYYCSLNQNYKIIFGAGTHLIVL
As for B8, the binding result in assay [1] is reported as “binds”.

B9: pOA-4 (antibody, V domains shown)
VH: EEKLVESGGGLVRPGGSLRLSCVGSGFPWNTYSVRWVRQAPMKGLEFVAYIFKNDNDRDYASSVKGRFTISRDNSQNTAYLQMNNLRTEDTAHYYCLLANKYWGPGVEVVVSS
VL: AVVLTQTPVSLTVSVGEPASISCSSSQSLVEDDGSSVLNWYLQKPGQSPQRLIYSAVGRDTGVPDRFSGSGSGTEFTLKISRVEAEDAGVYYCQQSRFSTSFGAGSKLELK
B9: the binding result in assay [1] is on record as “binds”.

Broadly, the Kd is the equilibrium constant for the complex coming apart. Low values mean tighter binding, high ones weaker binding.
